This is an account of results in publication PMC11779849.

Test [1] has as its target full length W2A-Pcad with an mCherry tag on the C-terminus (human). The experiment in a line: co-IP; lysates of A431 Pcad-mCherry cells grown 48 h without or with CQY684 Fab (200 nM); anti-mCherry rabbit mAb on magnetic protein G beads pulls down Pcad as bait; p120 detected by Western blot, p120/Pcad ratio normalised to WT -CQY; M2 lysis buffer pH 7.5, 50 mM Tris-HCl, 150 mM NaCl, 1% SDS, 1% Triton-X 100. A general note: In western blotting, separated proteins are transferred to a membrane and probed.

Test [2] has as its target full length WT-Pcad with an mCherry tag on the C-terminus (human) (UniProt P22223). The description is as above.

full length W2A-Pcad with an mCherry tag on the C-terminus (human), sequence (P22223 whole entry W109A): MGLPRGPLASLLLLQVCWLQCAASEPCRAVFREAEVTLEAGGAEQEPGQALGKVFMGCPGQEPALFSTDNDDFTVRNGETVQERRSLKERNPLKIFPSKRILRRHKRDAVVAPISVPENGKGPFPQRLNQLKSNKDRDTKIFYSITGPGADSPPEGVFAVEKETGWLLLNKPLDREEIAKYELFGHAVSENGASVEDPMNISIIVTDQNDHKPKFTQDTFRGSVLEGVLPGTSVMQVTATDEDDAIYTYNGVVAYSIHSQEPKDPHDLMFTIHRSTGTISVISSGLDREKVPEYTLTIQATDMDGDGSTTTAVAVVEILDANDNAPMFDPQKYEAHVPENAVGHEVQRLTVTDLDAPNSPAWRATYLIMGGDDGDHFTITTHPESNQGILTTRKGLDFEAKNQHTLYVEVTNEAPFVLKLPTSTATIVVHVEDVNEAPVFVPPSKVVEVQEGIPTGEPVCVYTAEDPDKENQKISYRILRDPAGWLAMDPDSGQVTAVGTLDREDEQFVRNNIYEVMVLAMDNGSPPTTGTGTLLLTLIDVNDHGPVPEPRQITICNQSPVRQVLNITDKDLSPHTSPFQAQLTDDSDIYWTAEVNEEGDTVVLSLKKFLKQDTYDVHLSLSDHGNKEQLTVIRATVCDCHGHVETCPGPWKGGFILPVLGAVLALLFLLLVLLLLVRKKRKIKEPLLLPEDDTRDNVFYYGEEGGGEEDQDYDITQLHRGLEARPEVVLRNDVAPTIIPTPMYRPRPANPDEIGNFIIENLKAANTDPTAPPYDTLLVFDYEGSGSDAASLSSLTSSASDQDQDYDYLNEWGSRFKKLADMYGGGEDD
full length WT-Pcad with an mCherry tag on the C-terminus (human), sequence (P22223 25-829): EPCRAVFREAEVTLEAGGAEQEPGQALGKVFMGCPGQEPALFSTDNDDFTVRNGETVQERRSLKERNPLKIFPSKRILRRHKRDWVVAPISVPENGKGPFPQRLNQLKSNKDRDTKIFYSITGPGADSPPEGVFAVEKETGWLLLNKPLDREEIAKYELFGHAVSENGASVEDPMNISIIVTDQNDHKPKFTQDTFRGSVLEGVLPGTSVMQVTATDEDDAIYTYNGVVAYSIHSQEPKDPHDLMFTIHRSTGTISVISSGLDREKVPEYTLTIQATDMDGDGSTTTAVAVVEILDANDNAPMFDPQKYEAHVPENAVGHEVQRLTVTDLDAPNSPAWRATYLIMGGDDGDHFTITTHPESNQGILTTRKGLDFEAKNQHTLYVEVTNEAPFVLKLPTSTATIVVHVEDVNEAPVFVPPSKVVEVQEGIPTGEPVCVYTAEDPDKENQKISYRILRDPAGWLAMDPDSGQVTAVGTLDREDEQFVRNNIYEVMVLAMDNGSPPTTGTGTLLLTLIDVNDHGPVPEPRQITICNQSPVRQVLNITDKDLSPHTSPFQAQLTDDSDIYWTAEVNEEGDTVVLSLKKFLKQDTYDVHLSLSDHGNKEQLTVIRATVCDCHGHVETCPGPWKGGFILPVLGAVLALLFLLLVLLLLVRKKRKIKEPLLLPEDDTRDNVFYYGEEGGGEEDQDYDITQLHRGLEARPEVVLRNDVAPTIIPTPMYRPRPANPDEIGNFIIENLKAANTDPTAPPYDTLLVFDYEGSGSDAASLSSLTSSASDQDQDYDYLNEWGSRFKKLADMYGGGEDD

B1: p120-catenin (natural protein)
chain: MDDSEVESTASILASVKEQEAQFEKLTRALEEERRHVSAQLERVRVSPQDANPLMANGTLTRRHQNGRFVGDADLERQKFSDLKLNGPQDHSHLLYSTIPRMQEPGQIVETYTEEDPEGAMSVVSVETSDDGTTRRTETTVKKVVKTVTTRTVQPVAMGPDGLPVDASSVSNNYIQTLGRDFRKNGNGGPGPYVGQAGTATLPRNFHYPPDGYSRHYEDGYPGGSDNYGSLSRVTRIEERYRPSMEGYRAPSRQDVYGPQPQVRVGGSSVDLHRFHPEPYGLEDDQRSMGYDDLDYGMMSDYGTARRTGTPSDPRRRLRSYEDMIGEEVPSDQYYWAPLAQHERGSLASLDSLRKGGPPPPNWRQPELPEVIAMLGFRLDAVKSNAAAYLQHLCYRNDKVKTDVRKLKGIPVLVGLLDHPKKEVHLGACGALKNISFGRDQDNKIAIKNCDGVPALVRLLRKARDMDLTEVITGTLWNLSSHDSIKMEIVDHALHALTDEVIIPHSGWEREPNEDCKPRHIEWESVLTNTAGCLRNVSSERSEARRKLRECDGLVDALIFIVQAEIGQKDSDSKLVENCVCLLRNLSYQVHREIPQAERYQEAAPNVANNTGPHAASCFGAKKGKDEWFSRGKKPIEDPANDTVDFPKRTSPARGYELLFQPEVVRIYISLLKESKTPAILEASAGAIQNLCAGRWTYGRYIRSALRQEKALSAIADLLTNEHERVVKAASGALRNLAVDARNKELIGKHAIPNLVKNLPGGQQNSSWNFSEDTVISILNTINEVIAENLEAAKKLRETQGIEKLVLINKSGNRSEKEVRAAALVLQTIWGYKELRKPLEKEGWKKSDFQVNLNNASRSQSSHSYDDSTLPLIDRNQKSDKKPDREEIQMSNMGSNTKSLDNNYSTPNERGDHNRTLDRSGDLGDMEPLKGTTPLMQDEGQESLEEELDVLVLDDEGGQVSYPSMQKI
Regarding B1, the p120 associated with Pcad, percent of the WT -CQY condition in test [1] is 30%. The p120 associated with Pcad in cells grown with CQY684 Fab, percent of the WT -CQY condition in test [2] is 60%.
